Columns and labels:
[1] = system: Escherichia coli cells; assay: Expression of recombinant UnaG protein in Escherichia coli, fluorescence observation; type: cell-based; details: blue light, UV transilluminator
Excerpt: A DNA fragment including the sequence of full-length UnaG gene prepared above was ligated to the restriction enzyme sites, BamHI and EcoRI, of Escherichia coli expression vector […] (GE Healthcare) including a GST-tag sequence that can express the GST-fused protein in Escherichia coli and transformed into Escherichia coli strain DH5α for subcloning. Thus, a UnaG (apo form) expression vector (pGEX-2T-UnaG) for Escherichia coli was constructed.
The constructed expression vector (pGEX-2T-UnaG) was transformed into Escherichia coli strain BL21 (DE3). The transformant was cultured on a plate of an LB solid medium to obtain colonies. The resulting colonies were inoculated in 40 mL of an LB liquid medium and were cultured overnight at 37° C. Here, a glycerol stock of the resulting Escherichia coli solution was produced, and this glycerol stock was used as the recombinant (vector) for Escherichia coli expression in the experiments described below. The LB medium was scaled up to 400 mL using the culture solution, followed by culturing at 37° C. for 1 hr (A600≈1.0). […]
(§1) FIG. 1 includes diagrams showing expression of recombinant UnaG protein in Escherichia coli and mammalian cells. […] The diagram (c) includes a differential interference image and a fluorescence image by observation of mammalian cell HEK293T expressing recombinant UnaG protein under a fluorescence microscope. […]

[2] = system: mammalian cell HEK293T; assay: Expression of recombinant UnaG protein in mammalian cells, fluorescence microscopy; type: cell-based; details: fluorescence microscope
Excerpt: DNA to be inserted to an expression vector for mammalian cell was amplified by PCR using full-length cDNA of the UnaG gene of SEQ ID NO: 2 as template DNA, a sense primer (SEQ ID NO: 24), and an antisense primer (SEQ ID NO: 25). A FLAG-tag sequence (SEQ ID NO: 26) was inserted into the KpnI restriction enzyme site and the BamHI restriction enzyme site of expression vector pcDNA3 (Invitrogen) for mammalian cell, and the amplified DNA fragment was ligated to the BamHI restriction enzyme site and the EcoRI restriction enzyme site of the resulting pcDNA3-FLAG vector and transformed into Escherichia coli strain DH5α for cloning. The vector was extracted from Escherichia coli and was purified. The sequence was confirmed by DNA sequence analysis. Thus, a UnaG expression vector (pcDNA3-FLAG-UnaG) for mammalian cells was constructed. […]
After the expression of protein, the medium was removed from each dish, and the cells were rinsed with PBS. […] The purified FLAG-UnaG protein (holo form) was irradiated with a UV transilluminator for verifying whether fluorescence was present or not. […]
as §1

B1: UnaG: fluorescent polypeptide including the amino acid sequence of SEQ ID NO: 1, originally isolated from Japanese eel; fluoresces in the presence of bilirubin (protein, listed as Anguilla japonica)
chain: MVEKFVGTWKIADSHNFGEYLKAIGAPKELSDGGDATTPTLYISQKDGDKMTVKIENGPPTFLDTQVKFKLGEEFDEFPSDRRKGVKSVVNLVGEKLVYVQKWDGKETTYVREIKDGKLVVTLTMGDVVAVRSYRRATE
fluorescence of expressed protein in cells [1]: did not emit fluorescence
fluorescence of expressed protein in cells [2]: emitted fluorescence

From patent publication US9957308B2, “Method for detecting bilirubin using a fluorescent protein” (RIKEN, priority 2013, dated 2018)
